Assay results: patent US20170166894A1, “APTAMERS FOR TOPICAL DELIVERY” (GlaxoSmithKline Intellectual Property Development Limited, published 2017)
Changes are numbered by the printed parent chain. Names may count otherwise.

Assays:
[1] = target: T1, IL-23 (p40/p19 heterodimer), endogenous from activated monocytes (Homo sapiens, UniProt P29460;Q9NPF7 SEQ:23-328,SEQ:20-189); test: cell_activity; STAT3 inhibition assay; compensatory pair restores activity; IL-23 source not stated for this assay
[2] = target: T1, IL-23 (p40/p19 heterodimer), endogenous …; test: cell_activity; STAT3 inhibition assay; disrupts G2-C30 loop-tail tertiary contact; IL-23 source not stated for this assay
[3] = target: T1, IL-23 (p40/p19 heterodimer), endogenous …; test: cell_activity; STAT3 activation in PHA blasts, endogenous IL-23
Method: Additionally, the ability of ARC20122 as well as its minimer ARC32225 to inhibit IL-23 dependent stimulation of STAT3 activity in PHA-Blast cells was tested. This assay utilized endogenous IL-23 produced from purified monocytes as described herein. […] ARC32225 performed slightly better than its parent clone with an IC₅₀ of 0.075 nM±0.030 nM. In both cases, the activity was markedly better than the control anti-p19 antibody, IC₅₀=0.69 nM±0.12 nM.
(§1) The ability of ARC32225 to inhibit endogenous IL-23 activation of PHA/IL-2 activated T-cells was tested by measuring levels of phospho-STAT3 (“phospho-STAT3 assay”). The binding of IL-23 to its receptor on activated T-cells stimulates several STAT pathways, including STAT3. Peripheral Blood Mononuclear Cells (PBMC) from fresh human blood were isolated by centrifugation in a Histopaque gradient and treated with PHA/IL-2 to enrich for T-cells and to upregulate IL-23 receptors. Cells were serum starved and treated with endogenous IL-23 for 15 minutes, and then lysed. Relative levels of phospho-STAT3 in IL-23 treated lysates, in the presence and absence of ARC32225 or a neutralizing p19 antibody, were measured by ELISA (Cell Signaling Technologies, Danvers, Mass.). Titrations of aptamer/antibody were used to generate inhibition curves from which IC₅₀ determinations were made.

[4] = target: IL-23 (p40/p19 heterodimer), recombinant human (Homo sapiens, UniProt P29460;Q9NPF7 SEQ:23-328,SEQ:20-189); test: in presence of competitor tRNA (18,000-fold excess); details: tags: R&D Systems 1290-IL-010/CF (catalogue number stated for the selection)
[5] = target: T1, IL-23 (p40/p19 heterodimer), endogenous …; test: cell_activity; phospho-STAT3 ELISA in PHA/IL-2 T-cells, seven titrations; a separate comparison with ARC20122 gave 0.075±0.030 nM (p832)
Method: as §1
Percent inhibition was recorded for each concentration tested for all donors (data not shown). Individual IC50 for each donor were also recorded (data not shown).

T1 sequence (P29460 23-328, chain 1 of 2): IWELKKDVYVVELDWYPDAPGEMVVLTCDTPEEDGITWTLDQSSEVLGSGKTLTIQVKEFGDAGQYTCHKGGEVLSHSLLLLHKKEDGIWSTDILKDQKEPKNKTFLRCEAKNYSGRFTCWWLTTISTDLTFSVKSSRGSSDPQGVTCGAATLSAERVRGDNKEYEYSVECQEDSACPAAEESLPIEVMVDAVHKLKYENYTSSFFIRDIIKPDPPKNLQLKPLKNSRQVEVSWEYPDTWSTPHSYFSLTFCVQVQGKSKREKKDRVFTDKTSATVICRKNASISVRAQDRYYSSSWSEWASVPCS
T1 sequence (Q9NPF7 20-189, chain 2 of 2): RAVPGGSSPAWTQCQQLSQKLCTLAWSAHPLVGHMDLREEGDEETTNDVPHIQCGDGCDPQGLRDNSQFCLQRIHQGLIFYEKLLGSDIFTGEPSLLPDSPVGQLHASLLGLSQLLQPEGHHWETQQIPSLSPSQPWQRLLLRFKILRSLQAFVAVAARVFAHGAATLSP
Chain of IL-23 (p40/p19 heterodimer), recombinant human (P29460 23-328, chain 1 of 2): as the sequence (P29460 23-328, chain 1 of 2) above
Chain of IL-23 (p40/p19 heterodimer), recombinant human (Q9NPF7 20-189, chain 2 of 2): as the sequence (Q9NPF7 20-189, chain 2 of 2) above

B1: ARC32225 G2A/C30U (ssRNA)
RNA: AAGGAAAUCAGGCUUUAUCGGGCGCCGCUUCCUGUGCCAUCGUCCGAGAGUAGGUAGUCUGU
modifications: mixed 2'-OMe and 2'-F as parent [mixed 2'-OMe and 2'-F as parent (positions not given)]
[1]
  IC50: 0.5 nM

B2: ARC32225 G2A (ssRNA)
RNA: B1 RNA with U30C
modifications: mixed 2'-OMe and 2'-F as parent [mixed 2'-OMe and 2'-F as parent (positions not given)]
[2]
  IC50: 108 nM

B3: ARC20122 (ssRNA)
RNA: GGAGGGAAAAGUUAUCAGGCUUCUAUCGGGCGCCGCGUUUUCCCUGUGUUAGCCAUCGUCCGACGAGUAGGCUAGUCUGAUGCC
modifications: 2'-OMe A and G, 2'-F C and U (mA,mG,fC,fU)
[3]
  IC50: 0.26 nM
[4]
  Kd: 9.1 nM

B4: ARC32225 (ssRNA)
RNA: AGGGAAAUCAGGCUUUAUCGGGCGCCGCUCCCUGUGCCAUCGUCCGAGAGUAGGUAGUCUG
modifications: mixed 2'-OMe and 2'-F as printed (10 mA, 1 fA, 14 mG, 6 fG, 3 mC, 13 fC, 1 mU, 13 fU); 3' idT
[5]
  IC50: 0.296 nM
